Laboratory results reported in PMC4151996.

Molecular target: AcHNL, hydroxynitrile lyase from Acidobacterium capsulatum ATCC 51196 (Acidobacterium capsulatum ATCC 51196)
Test: SEC

Substance: AcHNL, hydroxynitrile lyase from Acidobacterium capsulatum ATCC 51196 (enzyme)
- stoichiometry N: 4
